# Assay results published in patent US12065471B2, “B*44 restricted peptides for use in immunotherapy against cancers and related methods” (Immatics Biotechnologies GmbH, priority 2018, dated 2024).
# Molecular target: HLA-B*44:05 (Homo sapiens, UniProt P01889, A223V/A65T/A93T/A95T/D201E/D98Y/E176V/E187L/E204Q/E69K/G107R/H137Y/K202T/L105A/L119I/N104T/N87E/Q56L/Q94N/R106L/R155S/R180D/S101N/S121R/S35A/S48T/T118I/V36M/W191S/Y91S)
# Experiment: MHC binding assay (UV-ligand exchange, β2m ELISA, peptide exchange yield)
# Conditions: binding to HLA-B*44:05
# Summary of the method: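 Peptide–HLA complexes formed by UV-ligand exchange of a UV-cleavable peptide for the test peptide. Exchange yield measured by β2m ELISA: complexes diluted 100-fold and captured on streptavidin, detected with HRP anti-β2m and TMB, read at 450 nm. Quantified against refolded HLA-A*02:01/MLA-001 monomer standards, 15-500 ng/ml.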
row,Substance,"Peptide exchange (MHC class I binding score, peptide exchange yield)"
1,449 (RENDFEPKF; listed as Homo sapiens) [compound 449],+++ (>50 = +++)
2,144 (IEAYLERIGY; listed as Homo sapiens) [compound 144],+++ (>50 = +++)
3,364 (EECDKAYSF; listed as Homo sapiens) [compound 364],++ (>20% = ++)
4,347 (LENPHVQSV; listed as Homo sapiens) [compound 347],+++ (>50 = +++)
5,273 (TEFELLHQV; listed as Homo sapiens) [compound 273],+++ (>50 = +++)
6,367 (TEFAVKLKI; listed as Homo sapiens) [compound 367],+++ (>50 = +++)
7,141 (SEKWFRMGF; listed as Homo sapiens) [compound 141],+++ (>50 = +++)
8,350 (EEMLENVSL; listed as Homo sapiens) [compound 350],+++ (>50 = +++)
9,272 (SEQNIQRANLF; listed as Homo sapiens) [compound 272],+++ (>50 = +++)
10,92 (KEPSQSCIAQY; listed as Homo sapiens) [compound 92],+ (>10% = +)
11,118 (SEVPVDSHYY; listed as Homo sapiens) [compound 118],+++ (>50 = +++)
12,296 (AETIFIVRL; listed as Homo sapiens) [compound 296],++ (>20% = ++)
13,228 (LEYEAPKLY; listed as Homo sapiens) [compound 228],++ (>20% = ++)
14,46 (SELGLPKEV; listed as Homo sapiens) [compound 46],++ (>20% = ++)
15,245 (MEFQGPMPAGM; listed as Homo sapiens) [compound 245],+++ (>50 = +++)
16,125 (LEVLHQGQW; listed as Homo sapiens) [compound 125],+++ (>50 = +++)
17,105 (EEIFKTLNY; listed as Homo sapiens) [compound 105],+++ (>50 = +++)
18,358 (TEFHGGLHY; listed as Homo sapiens) [compound 358],+++ (>50 = +++)
19,102 (TELADLDAAW; listed as Homo sapiens) [compound 102],++++ (>75% = ++++)
20,173 (SEHSLEGQKF; listed as Homo sapiens) [compound 173],+++ (>50 = +++)
21,238 (VEDDNYKLSL; listed as Homo sapiens) [compound 238],+++ (>50 = +++)
22,455 (QESVHVASYYW; listed as Homo sapiens) [compound 455],++++ (>75% = ++++)
23,188 (AEFVPKADLL; listed as Homo sapiens) [compound 188],+++ (>50 = +++)

row,Substance,"Peptide exchange (MHC class I binding score, peptide exchange yield)"
1,311 (REKDLPNYNW; listed as Homo sapiens) [compound 311],++++ (>75% = ++++)
2,214 (SVNPIIYGF; listed as Homo sapiens) [compound 214],++ (>20% = ++)
3,306 (RRHPSFKRF; listed as Homo sapiens) [compound 306],+ (>10% = +)
4,211 (LEMLDAHRL; listed as Homo sapiens) [compound 211],+++ (>50 = +++)
5,400 (TELGLFGVW; listed as Homo sapiens) [compound 400],++++ (>75% = ++++)
6,442 (KESDAGKYY; listed as Homo sapiens) [compound 442],+++ (>50 = +++)
7,419 (SELSLLSLY; listed as Homo sapiens) [compound 419],+++ (>50 = +++)
8,399 (IEQADWPEI; listed as Homo sapiens) [compound 399],++ (>20% = ++)
9,332 (SEADWLRFW; listed as Homo sapiens) [compound 332],++++ (>75% = ++++)
10,279 (GEPVTQPGSLL; listed as Homo sapiens) [compound 279],+++ (>50 = +++)
11,197 (NEILTIHF; listed as Homo sapiens) [compound 197],++ (>20% = ++)
12,388 (VEIVTIPSL; listed as Homo sapiens) [compound 388],+++ (>50 = +++)
13,139 (AESDFSNNML; listed as Homo sapiens) [compound 139],+++ (>50 = +++)
14,385 (LEHPFLVNLW; listed as Homo sapiens) [compound 385],++++ (>75% = ++++)
15,55 (TEFHMQFSY; listed as Homo sapiens) [compound 55],++++ (>75% = ++++)
16,94 (SLAELIAKDW; listed as Homo sapiens) [compound 94],++ (>20% = ++)
17,248 (KESQLPTVMDF; listed as Homo sapiens) [compound 248],+++ (>50 = +++)
18,222 (SEDTIHTHL; listed as Homo sapiens) [compound 222],+++ (>50 = +++)
19,184 (EEQLLQKVM; listed as Homo sapiens) [compound 184],++++ (>75% = ++++)
20,90 (EESLLSSW; listed as Homo sapiens) [compound 90],+++ (>50 = +++)
21,348 (SEVLLTSISTF; listed as Homo sapiens) [compound 348],++++ (>75% = ++++)
22,189 (ALNGDIYVW; listed as Homo sapiens) [compound 189],++++ (>75% = ++++)
23,435 (FETEQALRL; listed as Homo sapiens) [compound 435],+++ (>50 = +++)

row,Substance,"Peptide exchange (MHC class I binding score, peptide exchange yield)"
1,338 (AEMKFYVVI; listed as Homo sapiens) [compound 338],+++ (>50 = +++)
2,392 (TEVSVLLLTF; listed as Homo sapiens) [compound 392],+++ (>50 = +++)
3,369 (KELEERMLHW; listed as Homo sapiens) [compound 369],++++ (>75% = ++++)
4,236 (LEDQLKPMLEW; listed as Homo sapiens) [compound 236],+++ (>50 = +++)
5,410 (RELEEEFYSL; listed as Homo sapiens) [compound 410],+++ (>50 = +++)
6,378 (QELFLQEVRM; listed as Homo sapiens) [compound 378],+++ (>50 = +++)
7,374 (NEAEWQEIL; listed as Homo sapiens) [compound 374],+++ (>50 = +++)
8,381 (QELMAFSFAGL; listed as Homo sapiens) [compound 381],++++ (>75% = ++++)
9,151 (TELQIPSF; listed as Homo sapiens) [compound 151],++ (>20% = ++)
10,276 (SEYQDGKEF; listed as Homo sapiens) [compound 276],++ (>20% = ++)
11,433 (AEEGPSVPKIY; listed as Homo sapiens) [compound 433],+++ (>50 = +++)
12,280 (AAEPLVGQRW; listed as Homo sapiens) [compound 280],++ (>20% = ++)
13,239 (DEDYTYLIL; listed as Homo sapiens) [compound 239],++ (>20% = ++)
14,401 (VENIFHNF; listed as Homo sapiens) [compound 401],++ (>20% = ++)
15,342 (SENKKWVEF; listed as Homo sapiens) [compound 342],++ (>20% = ++)
16,183 (KEMQVTISQQL; listed as Homo sapiens) [compound 183],++++ (>75% = ++++)
17,436 (AEADLSYTWDF; listed as Homo sapiens) [compound 436],+++ (>50 = +++)
18,218 (REAEEKEAQL; listed as Homo sapiens) [compound 218],+++ (>50 = +++)
19,251 (DESADSEPHKY; listed as Homo sapiens) [compound 251],+ (>10% = +)
20,208 (SEFLLRIF; listed as Homo sapiens) [compound 208],++ (>20% = ++)
21,383 (EEMERDLDMY; listed as Homo sapiens) [compound 383],+++ (>50 = +++)
